# T1: human ROBO3 (pCI-hROBO3-transfected HEK293 cells) (human, UniProt Q96MS0 21-1386)
# T1 sequence: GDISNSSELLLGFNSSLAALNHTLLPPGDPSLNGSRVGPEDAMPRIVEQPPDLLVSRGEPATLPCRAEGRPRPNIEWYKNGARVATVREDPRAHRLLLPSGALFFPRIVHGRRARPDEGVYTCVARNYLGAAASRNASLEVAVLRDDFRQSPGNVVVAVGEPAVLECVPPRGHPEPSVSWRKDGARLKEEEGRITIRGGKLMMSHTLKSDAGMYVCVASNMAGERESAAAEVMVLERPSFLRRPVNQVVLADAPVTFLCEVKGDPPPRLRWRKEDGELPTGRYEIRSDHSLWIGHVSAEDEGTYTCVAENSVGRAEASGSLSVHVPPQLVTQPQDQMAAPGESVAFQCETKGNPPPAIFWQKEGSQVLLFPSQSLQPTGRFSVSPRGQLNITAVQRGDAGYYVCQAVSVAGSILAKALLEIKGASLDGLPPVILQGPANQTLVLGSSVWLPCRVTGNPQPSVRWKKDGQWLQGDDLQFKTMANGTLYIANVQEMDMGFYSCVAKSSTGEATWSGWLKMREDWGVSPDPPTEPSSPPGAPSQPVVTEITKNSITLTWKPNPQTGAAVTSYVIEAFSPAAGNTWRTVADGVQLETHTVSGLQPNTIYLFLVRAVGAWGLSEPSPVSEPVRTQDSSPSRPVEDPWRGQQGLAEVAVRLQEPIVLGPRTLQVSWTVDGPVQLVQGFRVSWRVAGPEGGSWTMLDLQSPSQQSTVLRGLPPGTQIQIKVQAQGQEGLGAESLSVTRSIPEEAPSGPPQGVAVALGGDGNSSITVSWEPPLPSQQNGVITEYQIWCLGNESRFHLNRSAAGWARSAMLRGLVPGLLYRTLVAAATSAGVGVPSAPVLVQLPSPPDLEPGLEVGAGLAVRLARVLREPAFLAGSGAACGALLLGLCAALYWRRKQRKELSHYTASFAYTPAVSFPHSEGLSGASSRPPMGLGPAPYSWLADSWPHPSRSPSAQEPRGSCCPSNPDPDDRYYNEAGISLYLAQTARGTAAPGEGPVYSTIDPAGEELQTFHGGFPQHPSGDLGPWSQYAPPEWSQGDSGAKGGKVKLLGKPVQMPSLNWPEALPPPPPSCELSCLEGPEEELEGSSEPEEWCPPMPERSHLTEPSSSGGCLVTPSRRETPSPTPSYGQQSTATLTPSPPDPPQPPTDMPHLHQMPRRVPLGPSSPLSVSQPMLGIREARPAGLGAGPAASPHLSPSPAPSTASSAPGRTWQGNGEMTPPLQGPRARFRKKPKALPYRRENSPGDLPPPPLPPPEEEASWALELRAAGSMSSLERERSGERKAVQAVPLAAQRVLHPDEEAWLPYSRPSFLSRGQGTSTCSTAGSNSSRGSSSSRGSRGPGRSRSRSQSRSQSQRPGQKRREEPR
# Biological target: T1, human ROBO3 (pCI-hROBO3-transfected …)
# Test: flow cytometry, HEK293 cells transfected with pCI-hROBO3, anti-mouse IgG FITC; control histogram IgG
# Description: HEK293 cells were inoculated at a concentration of 1.2×10⁶ cells/dish or 1.5×10⁶ cells/dish to a 60-mm dish (manufactured by Corning Inc.) and cultured overnight in a DMEM medium containing 10% FBS at 37° C. under 5% CO₂ conditions. On the next day, the HEK293 cells were transfected with pCI-hROBO4, pCI-FLAG-hROBO1, pCI-hROBO2, or pCI-hROBO3 using FuGENE6 Transfection Reagent and further cultured overnight at 37° C. under 5% CO₂ conditions. On the next day, the expression vector-transfected cells were treated with TrypLE Express (manufactured by Life Technologies Corp.), washed with PBS containing 5% FBS, and then suspended in PBS containing 5% FBS. The obtained cell suspension was used in flow cytometry analysis.
# Each cell suspension prepared in 4)-4-1 was centrifuged, and the supernatant was removed. […] Data was analyzed using Flowjo. The histogram of FITC fluorescence intensity was prepared. The antibody was determined to bind in a specific manner when the histogram of MAb1 was shifted to a stronger fluorescence intensity region compared with the histogram of the negative control Mouse IgG1 or Mouse IgG2a. […]
binder,measurement,value
"anti-ROBO4 mouse monoclonal antibody MAb1 (antibody, mouse IgG1, V domains shown, Mouse IgG1 (gamma1), kappa light chain, purified from hybridoma supernatant; also called parent antibody MAb1) VH: EVQLVESGGGLVKPGGSLKLSCAASGFTFSTYAMSWVRQTPEKRLEWVATISNGGTYTYYPDSVKGRFTISRDNAENTLYLQMSSLRSEDTAMYFCARLIYYDYLDYWGHGTTLTVSS VL: DAVMTQTPLSLPVSLGDQASISCRSSQSLENSNGNTYLNWYFQKPGQSPQLLIYRVSNRFSGVLDRFSGSGSGTDFTLKISRVEAEDFGVYFCLQVTHVPWTFGGGTKLEIKR",binding result,no binding (tested: 10 µg/mL)
